Experimental data taken from paper doi:10.1101/2023.08.14.553221 (bioRxiv, 2023).

B1: short human tissue transglutaminase, aa 1-465 (short hrTG2, barrel 1 and 2 deletion mutant) (domain or fragment)
chain: MAEELVLERCDLELETNGRDHHTADLCREKLVVRRGQPFWLTLHFEGRNYEASVDSLTFSVVTGPAPSQEAGTKARFPLRDAVEEGDWTATVVDQQDCTLSLQLTTPANAPIGLYRLSLEASTGYQGSSFVLGHFILLFNAWCPADAVYLDSEEERQEYVLTQQGFIYQGSAKFIKNIPWNFGQFEDGILDICLILLDVNPKFLKNAGRDCSRRSSPVYVGRVVSGMVNCNDDQGVLLGRWDNNYGDGVSPMSWIGSVDILRRWKNHGCQRVKYGQCWVFAAVACTVLRCLGIPTRVVTNYNSAHDQNSNLLIEYFRNEFGEIQGDKSEMIWNFHCWVESWMTRPDLQPGYEGWQALDPTPQEKSEGTYCCGPVPVRAIKEGDLSTKYDAPFVFAEVNADVVDWIQQDDGSVHKSINRSLIVGLKISTKSVGRDEREDITHTYKYPEGSSEEREAFTRANHLNKL
modifications: Alexa Fluor 647 on primary amines
B2: short human TG2 (aa 1-465) pre-incubated with the irreversible inhibitor Z006 (domain or fragment)
chain: B1 chain
B3: R1R2 peptide (collagen-mimicking peptide derived from the SFS FN-binding protein of Streptococcus equi) (peptide)
peptide: GLNGENQKEPEQGERGEAGPPLSGLSGNNQGRPSLPGLNGENQKEPEQGERGEAGPP
B4: human tissue transglutaminase (hrTG2, recombinantly produced in E.coli) (enzyme)
chain: MAEELVLERCDLELETNGRDHHTADLCREKLVVRRGQPFWLTLHFEGRNYEASVDSLTFSVVTGPAPSQEAGTKARFPLRDAVEEGDWTATVVDQQDCTLSLQLTTPANAPIGLYRLSLEASTGYQGSSFVLGHFILLFNAWCPADAVYLDSEEERQEYVLTQQGFIYQGSAKFIKNIPWNFGQFEDGILDICLILLDVNPKFLKNAGRDCSRRSSPVYVGRVVSGMVNCNDDQGVLLGRWDNNYGDGVSPMSWIGSVDILRRWKNHGCQRVKYGQCWVFAAVACTVLRCLGIPTRVVTNYNSAHDQNSNLLIEYFRNEFGEIQGDKSEMIWNFHCWVESWMTRPDLQPGYEGWQALDPTPQEKSEGTYCCGPVPVRAIKEGDLSTKYDAPFVFAEVNADVVDWIQQDDGSVHKSINRSLIVGLKISTKSVGRDEREDITHTYKYPEGSSEEREAFTRANHLNKLAEKEETGMAMRIRVGQSMNMGSDFDVFAHITNNTAEEYVCRLLLCARTVSYNGILGPECGTKYLLNLNLEPFSEKSVPLCILYEKYRDCLTESNLIKVRALLVEPVINSYLLAERDLYLENPEIKIRILGEPKQKRKLVAEVSLQNPLPVALEGCTFTVEGAGLTEEQKTVEIPDPVEAGEEVKVRMDLLPLHMGLHKLVVNFESDKLKAVKGFRNVIIGPA
modifications: Alexa Fluor 647 on primary amines (fiber stretch assay)

What was measured:
[1] = biological target: T1, Fibronectin (FN), full-length, isolated from human plasma (human, UniProt P02751-1); assay: microplate protein-binding assay
[2] = biological target: T1, Fibronectin (FN), full-length, isolated …; assay: FN-fiber stretch assay
[3] = biological target: T1, Fibronectin (FN), full-length, isolated …; assay: cross-linking

Binder | binding result [1] | further results
B1 | binds | –
B2 | binds | –
B3 | – | binding result [2]: binds
B4 | – | binding result [3]: binds
